Paper PMC2518858

Experiments:
[1] = biological target: MC179, the CD36-binding portion (M2 subdomain) of the CIDR1α domain of PfEMP1 from the Malayan Camp (MC) strain of P. falciparum (Plasmodium falciparum (Malayan Camp strain)); test: SEC; refolded MC179 on a Superdex 75 size exclusion column; species with the mobility of dimers separated from monomers
[2] = biological target: MC179, the CD36-binding portion (M2 subdomain) of the CIDR1α domain of PfEMP1 from the Malayan Camp (MC) strain of P. falciparum (Plasmodium falciparum (Malayan Camp strain)); test: cross-linking; chemical cross-linking of MC179 in solution (data not shown)

## MC179, the CD36-binding portion (M2 subdomain) of the CIDR1α domain of PfEMP1 from the Malayan Camp (MC) strain of P. falciparum (domain or fragment)
[1]
  stoichiometry N: 2
[2]
  stoichiometry N: 2
